We go through eight molecules from US20130336951A1 (CENTRE FOR ADDICTION AND MENTAL HEALTH, published 2013).

The chains are these.
B1: GST-GluR2 NTa4 (K172-D221) (other, UniProt P19491 172-221, looked up)
chain: KWQVTAINVGNINNDKKDETYRSLFQDLELKKERRVILDCERDKVNDIVD
notes: range 172-221; also called GluR2NT1-4; not shown: glutathione S-transferase (GST) encoded by vector pGEX-4T3
B2: Glyceraldehyde 3-phosphate-dehydrogenase (GAPDH), endogenous protein of rat hippocampus (enzyme)
chain: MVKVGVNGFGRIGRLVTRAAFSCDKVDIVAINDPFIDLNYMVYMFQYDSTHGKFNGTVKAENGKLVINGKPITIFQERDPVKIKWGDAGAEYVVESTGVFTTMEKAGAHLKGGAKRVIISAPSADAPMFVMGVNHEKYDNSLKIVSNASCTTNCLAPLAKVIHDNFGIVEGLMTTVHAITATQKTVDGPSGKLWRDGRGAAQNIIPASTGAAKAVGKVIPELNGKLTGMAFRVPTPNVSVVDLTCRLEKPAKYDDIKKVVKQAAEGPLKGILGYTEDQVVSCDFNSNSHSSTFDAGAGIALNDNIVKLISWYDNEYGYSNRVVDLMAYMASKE
notes: Native protein in rat hippocampal extracts, primary rat hippocampal neurons and rat brain
B3: GST-GluR2 NTb (K272-I421) (other, UniProt P19491 272-421, looked up)
chain: KFIERWSTLEEKEYPGAHTATIKYTSALTYDAVQVMTEAFRNLRKQRIEISRRGNAGDCLANPAVPWGQGVEIERALKQVQVEGLSGNIKFDQNGKRINYTINIMELKTNGPRKIGYWSEVDKMVVTLTELPSGNDTSGLENKTVVVTTI
notes: range 272-421; also called GST-GluR2NT2; GluR2NT2; not shown: glutathione S-transferase (GST) encoded by vector pGEX-4T3
B4: GST-GluR2 NTa5 (Q222-S271) (other, UniProt P19491 222-271, looked up)
chain: QVITIGKHVKGYHYIIANLGFTDGDLLKIQFGGANVSGFQIVDYDDSLVS
notes: range 222-271; also called GluR2NT1-5; not shown: glutathione S-transferase (GST) encoded by vector pGEX-4T3
B5: GST-GluR2 NTa1 (V22-F71) (other, UniProt P19491 22-71, looked up)
chain: VSSNSIQIGGLFPRGADQEYSAFRVGMVQFSTSEFRLTPHIDNLEVANSF
notes: range 22-71; also called GluR2NT1-1; not shown: glutathione S-transferase (GST) encoded by vector pGEX-4T3
B6: p53, endogenous protein of rat hippocampus (other, UniProt P10361 1-391, looked up)
chain: MEDSQSDMSIELPLSQETFSCLWKLLPPDDILPTTATGSPNSMEDLFLPQDVAELLEGPEEALQVSAPAAQEPGTEAPAPVAPASATPWPLSSSVPSQKTYQGNYGFHLGFLQSGTAKSVMCTYSISLNKLFCQLAKTCPVQLWVTSTPPPGTRVRAMAIYKKSQHMTEVVRRCPHHERCSDGDGLAPPQHLIRVEGNPYAEYLDDRQTFRHSVVVPYEPPEVGSDYTTIHYKYMCNSSCMGGMNRRPILTIITLEDSSGNLLGRDSFEVRVCACPGRDRRTEEENFRKKEEHCPELPPGSAKRALPTSTSSSPQQKKKPLDGEYFTLKIRGRERFEMFRELNEALELKDARAAEESGDSRAHSSYPKTKKGQSTSRHKKPMIKKVGPDSD
B7: GST-GluR2 NTa2 (A72-T121) (other, UniProt P19491 72-121, looked up)
chain: AVTNAFCSQFSRGVYAIFGFYDKKSVNTITSFCGTLHVSFITPSFPTDGT
notes: range 72-121; also called GluR2NT1-2; not shown: glutathione S-transferase (GST) encoded by vector pGEX-4T3
B8: GST-GluR2 NTc (L422-E545) (other, UniProt P19491 422-545, looked up)
chain: LESPYVMMKKNHEMLEGNERYEGYCVDLAAEIAKHCGFKYKLTIVGDGKYGARDADTKIWNGMVGELVYGKADIAIAPLTITLVREEVIDFSKPFMSLGISIMIKKPQKSKPGVFSFLDPLAYE
notes: range 422-545; also called GST-GluR2NT3; GluR2NT3; not shown: glutathione S-transferase (GST) encoded by vector pGEX-4T3

The target of assay [1] is B2. In words: GST pull-down, Western blot for GAPDH. Background: Immunoblotting shows a protein as a band on a membrane.
Assay [2] has as its target T1, [35S]-GAPDH probe (in vitro translated, [35S]-methionine labelled GAPDH) (Homo sapiens, UniProt P04406 1-335, limits assumed, [35S]-methionine labelled). In words: blot overlay with in vitro translated probe.
The target of another assay is T2, GST alone (UniProt P08515 1-218 = GST).
T2 construct: Negative control; also called GST peptide
T2 sequence (P08515 whole entry): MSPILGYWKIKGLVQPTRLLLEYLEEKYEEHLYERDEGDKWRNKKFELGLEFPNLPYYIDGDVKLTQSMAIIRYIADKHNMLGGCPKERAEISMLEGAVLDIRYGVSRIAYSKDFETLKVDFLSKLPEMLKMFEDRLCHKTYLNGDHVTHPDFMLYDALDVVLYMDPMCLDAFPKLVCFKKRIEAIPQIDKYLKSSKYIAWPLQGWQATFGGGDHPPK
In words: GST pull-down, Western blot for GAPDH.

The target in assay [3] is B3. In words: repeated GST pull-down from rat hippocampal tissue.
Assay [4] concerns the target B8. In words: repeated GST pull-down from rat hippocampal tissue.
The target in another assay is T3, GST-GluR1NT (A19-E538) (UniProt P19490 19-538).
T3 construct: range 19-538; Control fusion protein; not shown: glutathione S-transferase (GST) encoded by vector pGEX-4T3
In words: GST pull-down from rat hippocampal extracts, Coomassie-stained SDS-PAGE.

Assay [5] deals with T1, [35S]-GAPDH probe (in vitro translated, …). Nature of the assay: repeated in vitro binding assay with in vitro translated probe.
Assay [6] addresses B2. Nature of the assay: repeated GST pull-down from rat hippocampal tissue.
The target of a further assay is T4, GST-GluR2NT (V22-E545) (Rattus norvegicus (Rat), UniProt P19491 22-545).
T4 construct: Bacterial GST fusion on glutathione-Sepharose; not shown: glutathione S-transferase (GST) encoded by vector pGEX-4T3
Nature of the assay: GST pull-down, Western blot for p53 (FIG. 24A).

T1 sequence (P04406 whole entry): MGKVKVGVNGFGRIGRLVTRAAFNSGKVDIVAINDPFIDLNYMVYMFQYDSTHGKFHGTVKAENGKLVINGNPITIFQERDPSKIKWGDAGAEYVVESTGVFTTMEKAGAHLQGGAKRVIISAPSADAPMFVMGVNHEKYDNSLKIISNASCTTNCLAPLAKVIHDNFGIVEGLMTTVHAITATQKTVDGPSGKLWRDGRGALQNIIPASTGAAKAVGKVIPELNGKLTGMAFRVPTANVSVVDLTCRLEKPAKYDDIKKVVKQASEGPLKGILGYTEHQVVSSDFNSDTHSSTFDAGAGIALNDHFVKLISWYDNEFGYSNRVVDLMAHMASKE

For the molecule B1, the binding result in assay [1] and in assay [2] was “no binding” throughout.

B2: the binding result (with GST alone; in [3]; in assay [4]; in the assay with GST-GluR1NT (A19-E538)) was “no binding” each time.

Turning to B3, the binding result in assay [5] is “no binding”.

Take B4: the binding result in assay [1] and in [2] was “no binding” throughout.

As for B5, the binding result in assay [2] and in [6] was “no binding” each time.

As for B6, the binding result with GST-GluR2NT (V22-E545) is on record as “no binding”.

On to B7, for which the binding result in [1] and in assay [2] was “no binding” each time.

On to B8, for which the binding result in assay [5] is on record as “no binding”.
